According to publication PMC3918441:
pKd: −log10 of the molar value.

Target: KDM5B PHD1 finger (wild type) (human)
Assay: other fluorescence titration

pKd: 5.82
Substance: H3K4me0 peptide (aa 1-12 of H3) (from UniProt P68431 2-13)
